Paper PMC3075667

How the values were obtained:
[1] = molecular target: Δ79AAG wild type (human) (UniProt P29372); assay: EMSA
[2] = molecular target: Δ79AAG wild type (human) (UniProt P29372); assay: competition
[3] = 3,N4-ethenocytosine opposite G (G19)

UniProt P29372, sequence (P29372 84-298, stated change not applied): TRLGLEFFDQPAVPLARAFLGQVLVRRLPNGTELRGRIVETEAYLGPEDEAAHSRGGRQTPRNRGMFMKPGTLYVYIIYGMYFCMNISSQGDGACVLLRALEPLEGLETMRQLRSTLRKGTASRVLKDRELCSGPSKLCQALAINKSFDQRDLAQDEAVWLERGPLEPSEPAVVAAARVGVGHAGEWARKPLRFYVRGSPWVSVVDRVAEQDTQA

| Substance | Kd ([1]; 1,N6-ethenoadenine opposite T) [nM] | IC50 ([2]; 1,N6-ethenoadenine opposite T) [nM] | Kd [1, 3] [nM] | IC50 [2, 3] [nM] |
| --- | --- | --- | --- | --- |
| ϵA:T 13-mer | 46 | 163 |  |  |
| ϵC:G 13-mer |  |  | 21 | 39 |
